One test concerns the target T1, mRAGE (mouse, UniProt Q62151 24-342, limits assumed).
T1 construct: also called mouse RAGE
Put plainly: Biacore specificity assay: IgG immobilised (about 300 RU), antigen m-RAGE-fc injected at 500 nM. The procedure:
(§1) Biacore specificity analyses were performed using the T-200 biosensor, series S CM5 chips, an amine-coupling kit, 10 mM sodium acetate immobilization buffer at pH 5.0, 10× HBS-P running buffer and NaOH for regeneration (GE Healthcare). A predefined ligand (IgG) immobilization program was set up to immobilize approximately 300 Response Units (RU) on the flow cell for each IgG to be tested. For Anti-RAGE and anti-A33, a panel of fully-purified recombinant target and non-target antigens were diluted in HBS-P running buffer to a final concentration of 500 nM. Four groups of antigens were examined, including: cell membrane proteins (mTRKB, hTRKB, mEGFR, hEGFR, hFceR1, hIL-21R, mICAM1, mICAM2, hICAM1, hCD33, hLAMP-1, hLOX-1, and), soluble signaling molecules (mTNFa, hVEGF, hCXCL13) and albumins (BSA, HSA and MSA). These proteins were injected at 50 μl/min for 3 min, followed by a 5 sec pulse of 20 mM NaOH for regeneration of the chip surface. For pTau, a series of pTau-derived phosphorylated and non-phosphorylated peptides were flowed, as in Shih et al.³. All sensorgrams were analyzed using the Biacore T-200 evaluation software.
(SPR reads the build-up and loss of mass on a sensor chip optically.)

A further test deals with T2, hRAGE (human, UniProt Q15109 24-344, limits assumed).
T2 construct: also called human RAGE
T2 sequence (Q15109 24-344 limits assumed): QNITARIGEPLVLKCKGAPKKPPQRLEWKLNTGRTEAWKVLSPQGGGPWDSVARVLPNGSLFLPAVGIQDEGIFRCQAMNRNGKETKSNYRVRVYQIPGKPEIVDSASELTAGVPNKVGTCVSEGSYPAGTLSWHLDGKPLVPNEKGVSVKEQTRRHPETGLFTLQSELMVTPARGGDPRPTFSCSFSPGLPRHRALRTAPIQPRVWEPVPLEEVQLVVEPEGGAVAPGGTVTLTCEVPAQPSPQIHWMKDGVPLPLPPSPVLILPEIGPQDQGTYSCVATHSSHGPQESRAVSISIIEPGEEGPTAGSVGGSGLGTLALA
Put plainly: Biacore specificity assay: IgG immobilised (about 300 RU), antigen h-RAGE-fc injected at 500 nM. The procedure:
as §1

A further test concerns the target T3, hLAMP-1 (human, UniProt P11279 29-382, limits assumed).
T3 construct: Non-target panel protein
T3 sequence (looked up): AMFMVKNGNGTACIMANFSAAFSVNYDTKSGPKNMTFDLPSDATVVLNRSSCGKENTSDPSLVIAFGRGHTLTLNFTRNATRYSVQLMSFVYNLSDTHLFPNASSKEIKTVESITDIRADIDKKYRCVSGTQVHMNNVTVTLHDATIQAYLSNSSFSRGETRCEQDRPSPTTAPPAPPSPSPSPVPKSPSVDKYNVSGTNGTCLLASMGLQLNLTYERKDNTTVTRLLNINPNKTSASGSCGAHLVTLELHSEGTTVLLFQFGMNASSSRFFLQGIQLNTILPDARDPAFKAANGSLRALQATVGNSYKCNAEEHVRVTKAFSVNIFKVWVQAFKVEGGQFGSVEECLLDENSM
Put plainly: Biacore specificity assay: IgG immobilised (about 300 RU), antigen injected at 500 nM. The procedure:
as §1

The target in another test is T4, mTNFa (mouse, UniProt P06804 80-235).
T4 construct: Non-target panel protein
T4 sequence (looked up): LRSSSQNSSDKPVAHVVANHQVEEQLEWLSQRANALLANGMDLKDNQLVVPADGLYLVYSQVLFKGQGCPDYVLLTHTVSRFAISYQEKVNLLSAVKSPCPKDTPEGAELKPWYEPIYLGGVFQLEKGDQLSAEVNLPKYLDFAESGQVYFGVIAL
The description is as above. The procedure: as §1

The target in the next test is T5, hVEGF (human, UniProt P15692-4 27-191, limits assumed).
T5 construct: Non-target panel protein
T5 sequence (P15692 other isoform, or with tags, fused parts or gaps limits assumed): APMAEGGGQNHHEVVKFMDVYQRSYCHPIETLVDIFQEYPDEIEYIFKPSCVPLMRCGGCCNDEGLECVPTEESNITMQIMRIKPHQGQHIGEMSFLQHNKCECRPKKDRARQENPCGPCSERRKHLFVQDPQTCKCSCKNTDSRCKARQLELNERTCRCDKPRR
The test is described as above. The procedure:
as §1

Another test deals with hLOX-1 (human, UniProt P78380 61-273). The test is described as above. The procedure:
as §1

The target in the next test is T6, mTRKB (mouse, UniProt P15209 32-429, limits assumed).
T6 construct: Non-target panel protein
T6 sequence (P15209 32-429 limits assumed): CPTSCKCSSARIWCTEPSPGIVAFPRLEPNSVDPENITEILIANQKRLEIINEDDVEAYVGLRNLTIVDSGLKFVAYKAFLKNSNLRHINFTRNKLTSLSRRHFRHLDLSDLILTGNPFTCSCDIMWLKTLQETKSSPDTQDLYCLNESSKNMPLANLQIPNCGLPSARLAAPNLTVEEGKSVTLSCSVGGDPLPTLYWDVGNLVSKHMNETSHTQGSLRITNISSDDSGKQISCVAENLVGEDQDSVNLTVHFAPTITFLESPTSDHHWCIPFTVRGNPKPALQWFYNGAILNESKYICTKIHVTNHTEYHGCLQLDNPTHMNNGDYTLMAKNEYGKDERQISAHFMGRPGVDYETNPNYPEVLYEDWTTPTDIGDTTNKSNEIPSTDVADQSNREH
Described as above. The protocol: as §1

In the next test the target is T7, hFceR1 (human, UniProt P12319 26-205).
T7 construct: Non-target panel protein
T7 sequence (alpha): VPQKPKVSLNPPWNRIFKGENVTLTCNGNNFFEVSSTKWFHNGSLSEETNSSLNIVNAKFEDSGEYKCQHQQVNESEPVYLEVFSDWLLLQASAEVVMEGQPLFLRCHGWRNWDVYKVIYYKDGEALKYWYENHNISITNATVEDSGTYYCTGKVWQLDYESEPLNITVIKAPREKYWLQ
The description is as above. The procedure:
as §1

Another test concerns the target T8, mICAM2 (mouse, UniProt P35330 23-222, limits assumed).
T8 construct: Non-target panel protein
T8 sequence (looked up): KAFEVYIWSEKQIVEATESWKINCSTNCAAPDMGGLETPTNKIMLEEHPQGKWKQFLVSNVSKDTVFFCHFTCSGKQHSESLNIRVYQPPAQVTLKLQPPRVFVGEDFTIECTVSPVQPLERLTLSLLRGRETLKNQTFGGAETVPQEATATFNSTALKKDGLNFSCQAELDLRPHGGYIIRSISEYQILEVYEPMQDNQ
The description is as above. The protocol:
as §1

A further test has as its target T9, mICAM1 (mouse, UniProt P13597 28-485, limits assumed).
T9 construct: Non-target panel protein
The description is as above. The procedure:
as §1

The target in the next test is T10, hTRKB (human, UniProt Q16620 32-430, limits assumed).
T10 construct: Non-target panel protein
T10 sequence (Q16620 32-430 limits assumed): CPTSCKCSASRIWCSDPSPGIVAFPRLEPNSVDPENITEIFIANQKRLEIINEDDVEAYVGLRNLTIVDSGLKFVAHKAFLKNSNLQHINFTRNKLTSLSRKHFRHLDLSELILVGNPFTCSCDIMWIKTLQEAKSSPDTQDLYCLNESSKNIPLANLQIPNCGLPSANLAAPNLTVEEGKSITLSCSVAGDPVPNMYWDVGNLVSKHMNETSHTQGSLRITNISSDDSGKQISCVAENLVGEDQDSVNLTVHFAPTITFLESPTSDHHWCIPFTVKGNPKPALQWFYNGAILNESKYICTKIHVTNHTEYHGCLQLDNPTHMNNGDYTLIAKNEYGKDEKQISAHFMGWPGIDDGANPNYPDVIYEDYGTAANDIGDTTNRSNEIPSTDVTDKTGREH
The description is as above. The protocol: as §1

The next test deals with T11, hEGFR (human, UniProt P00533 25-645, limits assumed).
T11 construct: Non-target panel protein
The test is described as above. The procedure: as §1

For the next test, the target named is T12, mEGFR (mouse, UniProt Q01279 25-647, limits assumed).
T12 construct: Non-target panel protein
The description is as above. The procedure: as §1

Another test has as its target T13, hIL-21R (human, UniProt Q9HBE5 20-232, limits assumed).
T13 construct: Non-target panel protein
The description is as above. The procedure:
as §1

The target of the next test is T14, hCD33 (human, UniProt P20138 18-259, limits assumed).
T14 construct: Non-target panel protein
T14 sequence (P20138 18-259 limits assumed): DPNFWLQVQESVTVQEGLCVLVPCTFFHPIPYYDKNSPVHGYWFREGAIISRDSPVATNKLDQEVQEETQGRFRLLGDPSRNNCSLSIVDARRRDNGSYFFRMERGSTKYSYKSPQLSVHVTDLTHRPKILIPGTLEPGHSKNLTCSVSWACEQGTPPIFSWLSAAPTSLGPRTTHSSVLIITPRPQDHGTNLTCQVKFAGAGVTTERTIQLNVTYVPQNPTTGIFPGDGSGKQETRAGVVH
Described as above. The procedure: as §1

The target of a further test is T15, hICAM1 (human, UniProt P05362 28-480, limits assumed).
T15 construct: Non-target panel protein
T15 sequence (P05362 28-480 limits assumed): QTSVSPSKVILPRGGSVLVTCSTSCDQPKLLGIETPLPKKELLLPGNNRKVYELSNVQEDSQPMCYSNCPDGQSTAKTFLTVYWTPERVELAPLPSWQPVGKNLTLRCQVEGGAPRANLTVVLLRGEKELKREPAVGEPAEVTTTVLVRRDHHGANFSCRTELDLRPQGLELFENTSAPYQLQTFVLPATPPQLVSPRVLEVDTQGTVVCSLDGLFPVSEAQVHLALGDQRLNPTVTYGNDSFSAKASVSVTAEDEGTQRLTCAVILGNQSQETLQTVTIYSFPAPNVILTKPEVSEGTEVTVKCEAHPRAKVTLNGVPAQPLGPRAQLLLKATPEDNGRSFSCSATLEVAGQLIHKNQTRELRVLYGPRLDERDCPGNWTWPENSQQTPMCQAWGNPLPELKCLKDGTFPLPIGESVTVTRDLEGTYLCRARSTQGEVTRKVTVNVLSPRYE
The test is described as above. The protocol: as §1

Another test concerns the target T16, hCXCL13 (human, UniProt O43927 23-109).
T16 construct: Non-target panel protein
T16 sequence (looked up): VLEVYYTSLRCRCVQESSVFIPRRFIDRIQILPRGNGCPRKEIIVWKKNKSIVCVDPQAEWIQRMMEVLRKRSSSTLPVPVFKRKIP
The description is as above. The protocol: as §1

In test [1] the target is T17, Human A33 ectodomain protein (human, UniProt Q99795 22-235).
T17 construct: extracellular domain
T17 sequence (looked up): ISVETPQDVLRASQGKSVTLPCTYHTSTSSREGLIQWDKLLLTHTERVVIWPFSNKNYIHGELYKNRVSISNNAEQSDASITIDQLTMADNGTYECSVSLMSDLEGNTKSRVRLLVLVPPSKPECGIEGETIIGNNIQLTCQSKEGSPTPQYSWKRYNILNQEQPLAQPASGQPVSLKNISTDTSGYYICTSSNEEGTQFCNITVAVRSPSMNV
As to the kind of experiment: HTRF epitope competition, IgG titrated; competitor parental IgG (Par-A33).

In test [2] the target is T17, Human A33 ectodomain protein. As to the kind of experiment: Biacore T-200 SPR, IgG immobilised (~100 RU), purified target protein injected. The protocol:
Biacore analysis was performed using the T-200 biosensor, series S CM5 chips, an amine-coupling kit, 10 mM sodium acetate immobilization buffer at pH 5.0, 10×HBS-P running buffer and NaOH for regeneration (GE Healthcare). Kinetic assay conditions were established to minimize the influence of mass transfer, avidity and rebinding events. A predefined ligand immobilization program was set up to immobilize approximately 100 Response Units (RU) of IgG on the chip. Purified target proteins were diluted in HBS-P running buffer to a range of final concentrations and injected at 50 μl/min for 3 mins. Dissociation was allowed to proceed for 10 min followed by a 5 sec pulse of 20 mM NaOH for regeneration of the chip surface. All sensorgrams were analyzed using the Biacore T-200 evaluation software.

T9 sequence (P13597 28-485 limits assumed): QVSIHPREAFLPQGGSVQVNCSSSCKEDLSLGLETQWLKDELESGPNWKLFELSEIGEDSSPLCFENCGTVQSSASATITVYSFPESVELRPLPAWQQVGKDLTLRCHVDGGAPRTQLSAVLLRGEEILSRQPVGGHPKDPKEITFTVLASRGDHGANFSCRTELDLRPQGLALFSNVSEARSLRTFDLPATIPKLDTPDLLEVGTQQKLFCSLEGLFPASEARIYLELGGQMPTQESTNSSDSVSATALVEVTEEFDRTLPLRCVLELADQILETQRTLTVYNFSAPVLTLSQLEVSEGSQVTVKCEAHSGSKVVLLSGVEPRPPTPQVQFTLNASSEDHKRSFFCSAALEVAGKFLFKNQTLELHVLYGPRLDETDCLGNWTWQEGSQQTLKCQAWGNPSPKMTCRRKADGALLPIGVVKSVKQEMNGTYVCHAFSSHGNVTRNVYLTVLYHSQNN
T13 sequence (Q9HBE5 20-232 limits assumed): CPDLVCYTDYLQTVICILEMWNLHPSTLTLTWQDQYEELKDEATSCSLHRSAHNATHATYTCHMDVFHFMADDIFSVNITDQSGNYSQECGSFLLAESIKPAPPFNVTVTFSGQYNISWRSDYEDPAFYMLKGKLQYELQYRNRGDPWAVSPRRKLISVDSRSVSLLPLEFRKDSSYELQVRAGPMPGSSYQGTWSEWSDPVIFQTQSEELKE
T1 sequence (Q62151 24-342 limits assumed): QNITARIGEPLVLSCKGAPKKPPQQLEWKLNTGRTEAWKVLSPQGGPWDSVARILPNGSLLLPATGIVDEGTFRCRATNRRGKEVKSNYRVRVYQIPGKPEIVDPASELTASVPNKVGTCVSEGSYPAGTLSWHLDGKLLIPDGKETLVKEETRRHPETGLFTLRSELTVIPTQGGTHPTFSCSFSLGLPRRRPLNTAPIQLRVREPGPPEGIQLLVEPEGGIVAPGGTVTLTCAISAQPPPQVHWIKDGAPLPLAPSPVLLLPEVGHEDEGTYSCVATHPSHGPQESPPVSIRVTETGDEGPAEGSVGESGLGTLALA

B1: Par-RAGE IgG (rat anti-RAGE XT-M4 parental v-domains on the human IgG1 backbone) (antibody, V domains shown)
VH: EVQLVESGGGLVQPGRSLKLSCVVSGFTFNNYWMTWIRQTPGKGLEWVASIDNSGDNTYYPDSVKDRFTISRDNAKSTLYLQMNSLRSEDTATYYCTRGGDITTGFDYWGQGVMVTVSS
VL: DIQMTQSPSSMSVSLGDTITITCRASQDVGIYVNWFQQKPGKSPRRMIYRATNLADGVPSRFSGSRSGSIYSLTISSLESEDVADYHCLEFDEHPLTFGSGTKVEIK
notes: Human IgG1 backbone; also called XTM4 RAGE
For B1, the binding result is on record as “binds” with mRAGE; “binds” with hRAGE; “no binding (tested: 500 nM)” with hLAMP-1; “no binding (tested: 500 nM)” with mTNFa; “no binding (tested: 500 nM)” in the test with hVEGF; “no binding (tested: 500 nM)” with hLOX-1. Besides, the binding result with mTRKB, in the test with hFceR1, in the test with mICAM2, with mICAM1, in the test with hTRKB and with hEGFR was “no binding (tested: 500 nM)” in each case. Moreover, the binding result in the test with mEGFR, in the test with hIL-21R, with hCD33, in the test with hICAM1 and with hCXCL13 was “no binding (tested: 500 nM)” in each case.

B2: Chim-A33 IgG (rabbit anti-A33 parental v-domains on the human IgG1 backbone) (antibody, V domains shown)
VH: QEQLMESGGGLVTLGGSLKLSCKASGIDFSHYGISWVRQAPGKGLEWIAYIYPNYGSVDYASWVNGRFTISLDNAQNTVFLQMISLTAADTATYFCARDRGYYSGSRGTRLDLWGQGTLVTISS
VL: ELVMTQTPPSLSASVGETVRIRCLASEFLFNGVSWYQQKPGKPPKFLISGASNLESGVPPRFSGSGSGTDYTLTIGGVQAEDVATYYCLGGYSGSSGLTFGAGTNVEIK
notes: also called Par-A33; A33 Rabbit
The IC50 is the concentration needed to halve the response being measured. A word on the Kd: it is the constant that tells how readily two partners part at equilibrium. Turning to B2, the IC50 in test [1] was determined as 2.9 nM. Besides, in test [2], the Kd is 2.1 nM. Further, the binding result with hLAMP-1, in the test with mTNFa, with hVEGF, with hLOX-1, with mTRKB and in the test with hFceR1 was “no binding (tested: 500 nM)” each time. Moreover, the binding result in the test with mICAM2, in the test with mICAM1, with hTRKB, with hEGFR, in the test with mEGFR and with hIL-21R was “no binding (tested: 500 nM)” throughout. Besides, the binding result in the test with hCD33, with hICAM1 and with hCXCL13 was “no binding (tested: 500 nM)” each time.

Source of the values: US20170073395A1 (Pfizer, published 2017).
